Test [1] has as its target BMI1_(121–235), BMI1 UBL domain, wild type (UniProt P35226). The test can be described thus: ITC; VP-ITC, 25 °C, 50 mM phosphate pH 6.5, 50 mM NaCl, 1 mM TCEP; BMI1 121-235 in the cell (22 or 9 μM), titrated with trx-PHC2 1-79 (164 μM) or PHC2 33-56 (100 μM). For orientation: In ITC the heat of successive injections is recorded.
Test [2] concerns the target FITC–PHC2_(32–61) (human). The test can be described thus: fluorescence polarisation; 20 nM fluorescein-labelled PHC2 32-61 titrated with BMI1 UBL variants or MEL18 UBL; 50 mM bis tris pH 7.5, 50 mM NaCl, 1 mM TCEP, 0.01% BSA, 0.25% tween-20; 1 h incubation.
For test [3], the target named is FITC–PHC2_(32–61) (human). The description is as above. This is another data set of the same source.

Read-outs that look alike come from different tables or passages of the source.

For PHC2_(33–56) peptide, the Kd (commonly the free concentration of one partner at which half of the binding sites on the other are occupied at equilibrium, for simple one-to-one binding) in test [1] worked out at 413 nM.
In the case of “BMI1 UBL domain R165E/H174E double mutant (from UniProt P35226 121-235) (domain or fragment)”, the Kd in test [2] is above 50000 nM.
On the same count and under the same terms, as for “BMI1 UBL domain H174E (from UniProt P35226 121-235) (domain or fragment)”, the figure is 20100 nM; as for “BMI1 UBL domain R165E (from UniProt P35226 121-235) (domain or fragment)”, 5900 nM; as for “BMI1 UBL domain M170E (from UniProt P35226 121-235) (domain or fragment)”, 17000 nM.
On to trx-PHC2_(1–79) (domain or fragment), for which, in test [1], the Kd turned out to be 398 nM and the stoichiometry N (commonly the number of molecules, sites or subunits per partner or assembly) was 1.
Turning to “BMI1 UBL domain F189Q (from UniProt P35226 121-235) (domain or fragment)”, the Kd in test [2] was found to be 409 nM.
For the molecule “BMI1_(121–235), BMI1 UBL domain, wild type (from UniProt P35226 121-235) (domain or fragment)”, the Kd in test [2] was found to be 215 nM.
In test [2], “BMI1 UBL domain I212E (from UniProt P35226 121-235) (domain or fragment)” registered a Kd of 1040 nM.

B1: MEL18_(121-237) fragment, MEL18 UBL domain (domain or fragment)
chain: EKGALSDDEIVSLSIEFYEGARDRDEKKGPLENGDGDKEKTGVRFLRCPAAMTVMHLAKFLRNKMDVPSKYKVEVLYEDEPLKEYYTLMDIAYIYPWRRNGPLPLKYRVQPACKRLT
In the case of B1, the Kd in test [3] was 812 nM. That is a sub-micromolar value.

Values taken from article PMC5105191.
